Data set [1] addresses T1, SGR_2426r (SGR_2426 protein) (Streptomyces griseus, UniProt B1W1N0, E318G).
T1 construct: full length (no signal peptide), C-terminal His6 tag kept, pET30a, E. coli BL21(DE3); monomer by PISA
Kind of data set: X-ray crystal structure, soaked crystal. In kind it is binding. The conditions noted are these: 500 mM Sop2 soak, about 2 h; subsites -1 and +1; mutant printed E316G once.

Substrate in data set [2]: C[C@H]1O[C@@H](Oc2ccc([N+](=O)[O-])cc2)[C@H](O)[C@@H](O)[C@H]1O
The experiment in a line: p-nitrophenol release, biphasic fit. The format is biochemical, Streptomyces griseus. The conditions noted are these: pH 6.5, first (stronger) site of biphasic equation. The text has this:
p-nitrophenol release, biphasic fit on SGR_2426r (SGR_2426 protein)

Substrate in data set [3]: O=[N+]([O-])c1ccc(O[C@@H]2O[C@H](CO)[C@H](O)[C@H](O)[C@H]2O)cc1
Kind of data set: purified protein. The conditions noted are these: pH 6.5.

Substrate in data set [4]: O=[N+]([O-])c1ccc(O[C@@H]2O[C@H](CO)[C@@H](O)[C@H](O)[C@H]2O)cc1
Kind of data set: purified protein. Particulars: pH 6.5.

T1 sequence (B1W1N0 entry or part of it E318G): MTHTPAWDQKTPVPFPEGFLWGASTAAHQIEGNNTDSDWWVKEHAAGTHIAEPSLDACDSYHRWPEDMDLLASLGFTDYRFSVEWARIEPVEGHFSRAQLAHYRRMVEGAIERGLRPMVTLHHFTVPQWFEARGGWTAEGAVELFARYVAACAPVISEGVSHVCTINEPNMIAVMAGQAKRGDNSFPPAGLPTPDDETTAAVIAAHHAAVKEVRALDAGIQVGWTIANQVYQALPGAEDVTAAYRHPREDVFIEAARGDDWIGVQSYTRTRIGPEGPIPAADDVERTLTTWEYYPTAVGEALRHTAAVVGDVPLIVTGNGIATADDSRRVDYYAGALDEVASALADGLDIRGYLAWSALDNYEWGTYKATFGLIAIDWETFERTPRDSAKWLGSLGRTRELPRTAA

`OC[C@H]1O[C@@H](O[C@H]2C(O)O[C@H](CO)[C@@H](O)[C@@H]2O)[C@H](O)[C@@H](O)[C@@H]1O` (stereo partly shown) [Sop2, sophorose]: in data set [1], the “X-ray crystal structure, soaked crystal” value is given as “crystals of the E318G mutant prepared without Sop2 were soaked”.

B1: SGR_2426r (SGR_2426 protein) (Streptomyces griseus subsp. griseus NBRC 13350) (protein)
chain: MTHTPAWDQKTPVPFPEGFLWGASTAAHQIEGNNTDSDWWVKEHAAGTHIAEPSLDACDSYHRWPEDMDLLASLGFTDYRFSVEWARIEPVEGHFSRAQLAHYRRMVEGAIERGLRPMVTLHHFTVPQWFEARGGWTAEGAVELFARYVAACAPVISEGVSHVCTINEPNMIAVMAGQAKRGDNSFPPAGLPTPDDETTAAVIAAHHAAVKEVRALDAGIQVGWTIANQVYQALPGAEDVTAAYRHPREDVFIEAARGDDWIGVQSYTRTRIGPEGPIPAADDVERTLTTWEYYPTAVGEALRHTAAVVGDVPLIVTENGIATADDSRRVDYYAGALDEVASALADGLDIRGYLAWSALDNYEWGTYKATFGLIAIDWETFERTPRDSAKWLGSLGRTRELPRTAA
notes: full length (no signal peptide), C-terminal His6 tag kept, pET30a, E. coli BL21(DE3); monomer by PISA
By Km is commonly meant the concentration of substrate that gives half-maximal velocity. As usually defined, the Vmax is the rate approached at saturating substrate. For B1, in data set [2], the Michaelis-Menten constant (Km) was determined as 160 ± 100 µM, the Vmax was 4.6 µmol/min/mg and the Vmax/Km turned out to be 29000 µL/min/mg. Also, in “purified protein [3]”, the Km worked out at 5800 ± 300 µM, the Vmax is 13 µmol/min/mg and the Vmax/Km came to 2300 µL/min/mg. Moreover, in “purified protein [4]”, the Km turned out to be 1000 ± 100 µM, the Vmax amounted to 28 µmol/min/mg and the Vmax/Km came out at 28000 µL/min/mg.

For the origin of these results see paper PMC12369401, “A β‐1,2‐glucan‐associated glycoside hydrolase family 1 β‐glucosidase from Streptomyces griseus” (Protein Science : A Publication of the Protein Society, 2025).
